Experimental data taken from article PMC6468809, “Structural Analysis of the 42 kDa Parvulin of Trypanosoma brucei” (Biomolecules, 2019).
*1 amine or outer side, *2 acyl side, *3 side chain or, on linkers, in order; H or OH if unused. Where no end group is shown, it is not given here. [ ]: non-standard residue; d: D form. pT = C[C@@H](OP(=O)(O)O)[C@H](N)C(=O)O; Suc = O=C(CCC(=O)[*:2])[*:1]

Legend:
[1] = target: TbPar42 N-terminal extended FHA domain (1-177) (Trypanosoma brucei, UniProt Q57XM6 1-177); assay: NMR titration; unlabelled Ala-Glu-Ala-pThr-Ala-Glu-Xaa peptide added stepwise up to 8 mM to 250 µM 15N-labelled NterFHA; 1H-15N-HSQC, 27 °C; mean KD values; settings: both partners purified
[2] = target: T1, TbPar42 PPIase domain (264-383) (T. brucei, succinyl on the N-terminus; phosphothreonine at position 2; C-terminal amide / 15N-labelled, wild type; entity position 1 = Pro264 (offset 263), so checks are His271, Cys333, Leu374; residual GP from); assay: NMR titration; 440 uM 15N-labelled NterFHA or PPIase in 50 mM potassium phosphate, pH 6.26, 90%/10% H2O/D2O; peptide added stepwise to 13 mM; 1H-15N-HSQC or SOFAST spectra, 700 MHz, 27 °C; settings: both partners purified
T1 chain: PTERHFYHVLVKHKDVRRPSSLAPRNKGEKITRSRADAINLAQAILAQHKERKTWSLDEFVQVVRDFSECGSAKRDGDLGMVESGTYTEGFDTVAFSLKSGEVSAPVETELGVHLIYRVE

Binder: AEA[pT]AED [Ala-Glu-Ala-pThr-Ala-Glu-Asp]
- Kd [1]: 3.4 mM

Binder: AEA[pT]AEI [Ala-Glu-Ala-pThr-Ala-Glu-Ile]
- Kd [1]: 4.1 mM

Binder: AEA[pT]AEE [Ala-Glu-Ala-pThr-Ala-Glu-Glu]
- Kd [1]: 5.4 mM

Binder: AEA[pT]AEV [Ala-Glu-Ala-pThr-Ala-Glu-Val]
- Kd [1]: 3.9 mM

B1: Suc-Ala-pThr-Pro-Ala-NH2 (peptide)
peptide: Suc-A[pT]PA-NH2
SMILES: C[C@H](NC(=O)[C@@H]1CCCN1C(=O)[C@@H](NC(=O)[C@H](C)NC(=O)CCC(=O)O)[C@@H](C)OP(=O)(O)O)C(N)=O
notes: also called phosphorylated model peptide; source: synthetic peptide, bought: CASLO
- Kd [2]: ~10 mM

Binder: AEA[pT]AES [Ala-Glu-Ala-pThr-Ala-Glu-Ser]
- Kd [1]: 3.1 mM
